Experimental findings from IntAct's records for PubMed 28712572 are described below.

Sequence of gbrap_human GABARAP (O95166 whole entry): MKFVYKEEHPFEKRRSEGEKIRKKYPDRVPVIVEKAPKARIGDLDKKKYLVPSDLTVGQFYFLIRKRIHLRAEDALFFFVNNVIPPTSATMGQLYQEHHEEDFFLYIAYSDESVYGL

This assay concerns the target gbrap_human GABARAP (UniProt O95166).
On to “Pericentriolar material 1 protein (Homo sapiens), Q15154 F1963R”, for which the “effect of a mutation on the interaction” value is “disrupting interaction strength”.

Turning to “Pericentriolar material 1 protein (Homo sapiens), Q15154 F1963S”, the “effect of a mutation on the interaction” value was “disrupting interaction strength”.

Take “Pericentriolar material 1 protein (Homo sapiens), Q15154 F1963T”: the “effect of a mutation on the interaction” value is recorded as “disrupting interaction strength”.

Turning to “Pericentriolar material 1 protein (Homo sapiens), Q15154 F1963V”, the “effect of a mutation on the interaction” value is “disrupting interaction strength”.

For the substance “Pericentriolar material 1 protein (Homo sapiens), Q15154 F1963W”, the “effect of a mutation on the interaction” value is listed as “with no effect”.

As to “Pericentriolar material 1 protein (Homo sapiens), Q15154 F1963Y”, the “effect of a mutation on the interaction” value is given as “decreasing interaction strength”.

Turning to “Pericentriolar material 1 protein (Homo sapiens), Q15154 G1952A”, the “effect of a mutation on the interaction” value is “with no effect”.

Take “Pericentriolar material 1 protein (Homo sapiens), Q15154 G1952C”: the “effect of a mutation on the interaction” value is given as “with no effect”.

Regarding “Pericentriolar material 1 protein (Homo sapiens), Q15154 G1952D”, the “effect of a mutation on the interaction” value is on record as “with no effect”.

On to “Pericentriolar material 1 protein (Homo sapiens), Q15154 G1952E”, for which the “effect of a mutation on the interaction” value is on record as “with no effect”.

“Pericentriolar material 1 protein (Homo sapiens), Q15154 G1952F”: the “effect of a mutation on the interaction” value is listed as “with no effect”.

As to “Pericentriolar material 1 protein (Homo sapiens), Q15154 G1952H”, the “effect of a mutation on the interaction” value is listed as “with no effect”.

For “Pericentriolar material 1 protein (Homo sapiens), Q15154 G1952I”, the “effect of a mutation on the interaction” value was “with no effect”.

For the substance “Pericentriolar material 1 protein (Homo sapiens), Q15154 G1952K”, the “effect of a mutation on the interaction” value is “with no effect”.

As to “Pericentriolar material 1 protein (Homo sapiens), Q15154 G1952L”, the “effect of a mutation on the interaction” value is “with no effect”.

In the case of “Pericentriolar material 1 protein (Homo sapiens), Q15154 G1952M”, the “effect of a mutation on the interaction” value was “with no effect”.

As for “Pericentriolar material 1 protein (Homo sapiens), Q15154 G1952N”, the “effect of a mutation on the interaction” value is given as “with no effect”.

With “Pericentriolar material 1 protein (Homo sapiens), Q15154 G1952P”, the “effect of a mutation on the interaction” value was “with no effect”.

As to “Pericentriolar material 1 protein (Homo sapiens), Q15154 G1952Q”, the “effect of a mutation on the interaction” value is “with no effect”.

With “Pericentriolar material 1 protein (Homo sapiens), Q15154 G1952R”, the “effect of a mutation on the interaction” value is given as “with no effect”.

Take “Pericentriolar material 1 protein (Homo sapiens), Q15154 G1952S”: the “effect of a mutation on the interaction” value was “with no effect”.

“Pericentriolar material 1 protein (Homo sapiens), Q15154 G1952T”: the “effect of a mutation on the interaction” value was “with no effect”.

Take “Pericentriolar material 1 protein (Homo sapiens), Q15154 G1952V”: the “effect of a mutation on the interaction” value is given as “with no effect”.

Turning to “Pericentriolar material 1 protein (Homo sapiens), Q15154 G1952W”, the “effect of a mutation on the interaction” value is on record as “with no effect”.

As to “Pericentriolar material 1 protein (Homo sapiens), Q15154 G1952Y”, the “effect of a mutation on the interaction” value is listed as “with no effect”.

On to “Pericentriolar material 1 protein (Homo sapiens), Q15154 I1954A”, for which the “effect of a mutation on the interaction” value is “with no effect”.

With “Pericentriolar material 1 protein (Homo sapiens), Q15154 I1954C”, the “effect of a mutation on the interaction” value is recorded as “with no effect”.

With “Pericentriolar material 1 protein (Homo sapiens), Q15154 I1954D”, the “effect of a mutation on the interaction” value is on record as “with no effect”.

Regarding “Pericentriolar material 1 protein (Homo sapiens), Q15154 I1954E”, the “effect of a mutation on the interaction” value is listed as “with no effect”.

Regarding “Pericentriolar material 1 protein (Homo sapiens), Q15154 I1954F”, the “effect of a mutation on the interaction” value is “with no effect”.

With “Pericentriolar material 1 protein (Homo sapiens), Q15154 I1954G”, the “effect of a mutation on the interaction” value is “with no effect”.

Consider “Pericentriolar material 1 protein (Homo sapiens), Q15154 I1954H”, for which the “effect of a mutation on the interaction” value is reported as “with no effect”.

Regarding “Pericentriolar material 1 protein (Homo sapiens), Q15154 I1954K”, the “effect of a mutation on the interaction” value was “with no effect”.

“Pericentriolar material 1 protein (Homo sapiens), Q15154 I1954L”: the “effect of a mutation on the interaction” value is “with no effect”.

“Pericentriolar material 1 protein (Homo sapiens), Q15154 I1954M”: the “effect of a mutation on the interaction” value is recorded as “with no effect”.

As to “Pericentriolar material 1 protein (Homo sapiens), Q15154 I1954N”, the “effect of a mutation on the interaction” value is “with no effect”.

As for “Pericentriolar material 1 protein (Homo sapiens), Q15154 I1954P”, the “effect of a mutation on the interaction” value is “with no effect”.

On to “Pericentriolar material 1 protein (Homo sapiens), Q15154 I1954Q”, for which the “effect of a mutation on the interaction” value was “with no effect”.

For the substance “Pericentriolar material 1 protein (Homo sapiens), Q15154 I1954R”, the “effect of a mutation on the interaction” value was “with no effect”.

For the substance “Pericentriolar material 1 protein (Homo sapiens), Q15154 I1954S”, the “effect of a mutation on the interaction” value was “with no effect”.

Consider “Pericentriolar material 1 protein (Homo sapiens), Q15154 I1954T”, for which the “effect of a mutation on the interaction” value is listed as “with no effect”.

In the case of “Pericentriolar material 1 protein (Homo sapiens), Q15154 I1954V”, the “effect of a mutation on the interaction” value is “decreasing interaction strength”.

Regarding “Pericentriolar material 1 protein (Homo sapiens), Q15154 I1954W”, the “effect of a mutation on the interaction” value is given as “with no effect”.

On to “Pericentriolar material 1 protein (Homo sapiens), Q15154 I1954Y”, for which the “effect of a mutation on the interaction” value was “with no effect”.

Take “Pericentriolar material 1 protein (Homo sapiens), Q15154 I1975A”: the “effect of a mutation on the interaction” value is listed as “with no effect”.

As to “Pericentriolar material 1 protein (Homo sapiens), Q15154 I1975C”, the “effect of a mutation on the interaction” value is reported as “with no effect”.

Take “Pericentriolar material 1 protein (Homo sapiens), Q15154 I1975D”: the “effect of a mutation on the interaction” value is reported as “with no effect”.

In the case of “Pericentriolar material 1 protein (Homo sapiens), Q15154 I1975E”, the “effect of a mutation on the interaction” value is recorded as “with no effect”.

Turning to “Pericentriolar material 1 protein (Homo sapiens), Q15154 I1975F”, the “effect of a mutation on the interaction” value is on record as “with no effect”.

Take “Pericentriolar material 1 protein (Homo sapiens), Q15154 I1975G”: the “effect of a mutation on the interaction” value is “with no effect”.

“Pericentriolar material 1 protein (Homo sapiens), Q15154 I1975H”: the “effect of a mutation on the interaction” value is on record as “with no effect”.

Turning to “Pericentriolar material 1 protein (Homo sapiens), Q15154 I1975K”, the “effect of a mutation on the interaction” value is listed as “with no effect”.

Regarding “Pericentriolar material 1 protein (Homo sapiens), Q15154 I1975L”, the “effect of a mutation on the interaction” value is reported as “with no effect”.

As for “Pericentriolar material 1 protein (Homo sapiens), Q15154 I1975M”, the “effect of a mutation on the interaction” value is given as “with no effect”.

Regarding “Pericentriolar material 1 protein (Homo sapiens), Q15154 I1975N”, the “effect of a mutation on the interaction” value is on record as “with no effect”.

Take “Pericentriolar material 1 protein (Homo sapiens), Q15154 I1975P”: the “effect of a mutation on the interaction” value was “with no effect”.

Turning to “Pericentriolar material 1 protein (Homo sapiens), Q15154 I1975Q”, the “effect of a mutation on the interaction” value is recorded as “with no effect”.

Regarding “Pericentriolar material 1 protein (Homo sapiens), Q15154 I1975R”, the “effect of a mutation on the interaction” value is “with no effect”.

In the case of “Pericentriolar material 1 protein (Homo sapiens), Q15154 I1975S”, the “effect of a mutation on the interaction” value is recorded as “with no effect”.

“Pericentriolar material 1 protein (Homo sapiens), Q15154 I1975T”: the “effect of a mutation on the interaction” value is listed as “with no effect”.

For “Pericentriolar material 1 protein (Homo sapiens), Q15154 I1975V”, the “effect of a mutation on the interaction” value is on record as “with no effect”.

“Pericentriolar material 1 protein (Homo sapiens), Q15154 I1975W”: the “effect of a mutation on the interaction” value is “with no effect”.

For “Pericentriolar material 1 protein (Homo sapiens), Q15154 I1975Y”, the “effect of a mutation on the interaction” value is given as “with no effect”.

With “Pericentriolar material 1 protein (Homo sapiens), Q15154 K1957A”, the “effect of a mutation on the interaction” value is listed as “with no effect”.
